The RNAGym collection of RNA variant scans (doi:10.7554/elife.90254)

B1: LINE1-full (parent)
chain: UACGUAGGUGGUUUUCCCCUGAUAGUGCUAAGGGGGCCUGGAAGUUUGGACUGGGCAGAGCUCAACACAGCGUGGCAAAGUGGCUGUGGCUAGACUGCCUCUCUGGAUUCCUCGUCACUCAGCAGGGCAUCUCUGAGAGAAAUGCC

Variants of: B1
Assay: self-cleavage, relative activity (ratio to wild type); higher = more cleavage; in vitro, sequencing; the parent is a self-cleaving ribozyme

**Q.** Which self-cleavage does the source give for UACGUAGGUGGUUUUCCCCUGAUAGUGCUAAGGGACCCUGGAAGUUUGGACUGGGCAGAGCUCAACACAGCGUGGCAAAGUGGCUGUGGCUAGACUGCCUCUCUGGAUUCCUCGUCACUCAGCAGGGCAUCUCUGAGAGAAAUGCC [G35A G36C] here?
**A.** 1.05

**Q.** With UACGUAGGUGGUUUUCCCCUGAUAGUGCUAAGGGAGCCUGGAAGUUUGGACUGGGCAGAGCUCAACACAGCAUGGCAAAGUGGCUGUGGCUAGACUGCCUCUCUGGAUUCCUCGUCACUCAGCAGGGCAUCUCUGAGAGAAAUGCC [G35A G72A] as the variant, how does the self-cleavage read?
**A.** 1.18

**Q.** For UACGUAGGUGGUUUUCCCCUGAUAGUGCUAAGGGAGCCUGGAAGUUUGGACUGGGCAGAGCUCAACACAGCGUGGCAAAGUGCCUGUGGCUAGACUGCCUCUCUGGAUUCCUCGUCACUCAGCAGGGCAUCUCUGAGAGAAAUGCC [G35A G83C], which self-cleavage is on record?
**A.** 0.71

**Q.** With UACGUAGGUGGUUUUCCCCUGAUAGUGCUAAGGGAGCCUGGAAGUUUGGACUGGGCAGAGCUCAACACAGCGUGGCAAAGUGGCUGUGGCUAGACUGCCUCUCUGAAUUCCUCGUCACUCAGCAGGGCAUCUCUGAGAGAAAUGCC [G35A G106A] as the variant, how does the self-cleavage read?
**A.** 1.21

**Q.** For UACGUAGGUGGUUUUCCCCUGAUAGUGCUAAGGGAGCCUGGAAGCUUGGACUGGGCAGAGCUCAACACAGCGUGGCAAAGUGGCUGUGGCUAGACUGCCUCUCUGGAUUCCUCGUCACUCAGCAGGGCAUCUCUGAGAGAAAUGCC [G35A U45C], which self-cleavage is on record?
**A.** 0.97

**Q.** With UACGUAGGUGGUUUUCCCCUGAUAGUGCUAAGGGAGCCUGGAAGUUUGGACUGGGCAGAGCUCAACACAGCGUGGCAAAGUGGCCGUGGCUAGACUGCCUCUCUGGAUUCCUCGUCACUCAGCAGGGCAUCUCUGAGAGAAAUGCC [G35A U85C] as the variant, how does the self-cleavage read?
**A.** 0.09

**Q.** Which self-cleavage does the source give for UACGUAGGUGGUUUUCCCCUGAUAGUGCUAAGGGAGCCUGGAAGUUUGGACUGGGCAGAGCUCAACACAGCGUGGCAAAGUGGCUGUGGCUAGACUGCCCCUCUGGAUUCCUCGUCACUCAGCAGGGCAUCUCUGAGAGAAAUGCC [G35A U100C] here?
**A.** 1.36

**Q.** With UACGUAGGUGGUUUUCCCCUGAUAGUGCUAAGGGAGCCUGGAAGUUUGGACUGGGCAGAGCUCAACACAGCGUGGCAAAGUGGCUGUGGCUAGACUGCCUCUCUGGAUACCUCGUCACUCAGCAGGGCAUCUCUGAGAGAAAUGCC [G35A U109A] as the variant, how does the self-cleavage read?
**A.** 1.59

**Q.** Which self-cleavage does the source give for UACGUAGGUGGUUUUCCCCUGAUAGUGCUAAGGGAGCCUGGAAGUUUGGACUGGGCAGAGCUCAACACAGCGUGGCAAAGUGGCUGUGGCUAGACUGCCUCUCUGGAUUCCUCGUCACCCAGCAGGGCAUCUCUGAGAGAAAUGCC [G35A U119C] here?
**A.** 1.3

**Q.** For UACGUAGGUGGUUUUCCCCUGAUAGUGCUAAGGGAGCCUGGAAGUUUGGACUGGGCAGAGCUCAACACAGCGUGGCAAAGUGGCUGUGGCUAGACUGCCUCUCUGGAUUCCUCGUCACUCAGCAGGGCAACUCUGAGAGAAAUGCC [G35A U130A], which self-cleavage is on record?
**A.** 1.1

**Q.** Which self-cleavage does the source give for UACGUAGGUGGUUUUCCCCUGAUAGUGCUAAGGGAGCCUGGAAGUUUGGACUGGGCAGAGCUCAACACAGCGUGGCAAAGUGGCUGUGGCUAGACUGCCUCUCUGGAUUCCUCGUCACUCAGCAGGGCAUCUCUGAGAGAAACGCC [G35A U143C] here?
**A.** 1.04

**Q.** With UACGUAGGUGGUUUUCCCCUGAUAGUGCUAAGGGCGCCUGGAAGUUUGGACUGGGCAGAGCUCAACACAGCGUGGCAAAGUGGCUGUGGCUAGACUGCCUCUCUGGAUUCCUCGUCACUCAGCAGGGCAUCUCUGAGAGAAAUGCC [G35C] as the variant, how does the self-cleavage read?
**A.** 1.31

**Q.** Which self-cleavage does the source give for UACGUAGGUGGUUUUCCCCUGAUAGUGCUAAGGGCGCCUGGAAGUUUGGACUGGGCAGAGCUCAGCACAGCGUGGCAAAGUGGCUGUGGCUAGACUGCCUCUCUGGAUUCCUCGUCACUCAGCAGGGCAUCUCUGAGAGAAAUGCC [G35C A65G] here?
**A.** 0.04

**Q.** Which self-cleavage does the source give for UACGUAGGUGGUUUUCCCCUGAUAGUGCUAAGGGCGCCUGGAAGUUUGGACUGGGCAGAGCUCAACACAGCGUGGCAAAGUGGCUGUGGCUAGGCUGCCUCUCUGGAUUCCUCGUCACUCAGCAGGGCAUCUCUGAGAGAAAUGCC [G35C A94G] here?
**A.** 0.14

**Q.** Which self-cleavage does the source give for UACGUAGGUGGUUUUCCCCUGAUAGUGCUAAGGGCGCCUGGAAGUUUGGACUGGGCAGAGCUCAACACAGCGUGGCAAAGUGGCUGUGGCUAGACUGCCUCUCUGGAUUCCUCGUCACUCAGCAGGGCAUCUCUGAGAGAGAUGCC [G35C A141G] here?
**A.** 0.61

**Q.** Which self-cleavage does the source give for UACGUAGGUGGUUUUCCCCUGAUAGUGCUAAGGGCGCCUGGAAGUUUGGACUGGGCAGAGCUCAACACAGCGUGGCAAAGUGGCUGUGGCUAGACUGCCUCUCUGGAUUCCUAGUCACUCAGCAGGGCAUCUCUGAGAGAAAUGCC [G35C C113A] here?
**A.** 1.68

**Q.** With UACGUAGGUGGUUUUCCCCUGAUAGUGCUAAGGGCGCCUGGAAGUCUGGACUGGGCAGAGCUCAACACAGCGUGGCAAAGUGGCUGUGGCUAGACUGCCUCUCUGGAUUCCUCGUCACUCAGCAGGGCAUCUCUGAGAGAAAUGCC [G35C U46C] as the variant, how does the self-cleavage read?
**A.** 1.38

**Q.** Which self-cleavage does the source give for UACGUAGGUGGUUUUCCCCUGAUAGUGCUAAGGGCGCCUGGAAGUUUGGACUGGGCAGAGCCCAACACAGCGUGGCAAAGUGGCUGUGGCUAGACUGCCUCUCUGGAUUCCUCGUCACUCAGCAGGGCAUCUCUGAGAGAAAUGCC [G35C U62C] here?
**A.** 0.06

**Q.** For UACGUAGGUGGUUUUCCCCUGAUAGUGCUAAGGGCGCCUGGAAGUUUGGACUGGGCAGAGCUCAACACAGCGUGGCAAAGUGGCUGUGGCCAGACUGCCUCUCUGGAUUCCUCGUCACUCAGCAGGGCAUCUCUGAGAGAAAUGCC [G35C U91C], which self-cleavage is on record?
**A.** 0.81

**Q.** For UACGUAGGUGGUUUUCCCCUGAUAGUGCUAAGGGCGCCUGGAAGUUUGGACUGGGCAGAGCUCAACACAGCGUGGCAAAGUGGCUGUGGCUAGACUGCCUCUCUGGAUUCCUCGUCACUCAGCAGGGCAUCUCUGAGAGAAAAGCC [G35C U143A], which self-cleavage is on record?
**A.** 1.39
